Patent publication US7271144B2, “Therapeutic fibrin-derived peptides and uses thereof” (Fibrex Medical Research & Development GmbH, priority 2000, dated 2007)

B1: FCB-2: negative control; 43 kD fibrinogen cleavage product, Aalpha-chain 148-208, Bbeta-chain 191-305 and gamma-chain 95-265 (protein)
chain 1: KVQHIQLLQKNVRAQLVDMKRLEVDIDIKIRSCRGSCSRALAREVDLKDYEDQQKQLEQVI
chain 2: IPTNLRVLRSILENLRSKIQKLESDVSAQMEYCRTPCTVSCNIPVVSGKECEEIIRKGGETSEMYLIQPDSSVKPYRVYCDMNTENGGWTVIQNRQDGSVDFGRKWDPYKQGFGN
chain 3: NPDESSKPNMIDAATLKSRKMLEEIMKYEASILTHDSSIRYLQEIYNSNNQKIVNLKEKVAQLEAQCQEPCKDTVQIHDITGKDCQDIANKGAKQSGLYFIKPLKANQQFLVYCEIDGSGNGWTVFQKRLDGSVDFKKNWIQYKEGFGHLSPTGTTEFWLGNEKIHLISTQ
B2: NDSK: 63 kD fibrinogen fragment, N-terminal disulfide knot; Aalpha-chain 1-51, Bbeta-chain 1–118 and gamma-chain 1-78 (protein)
chain 1: ADSGEGDFLAEGGGVRGPRVVERHQSACKDSD
chain 2: QGVNDNEEGFFSARGHRPLDKKREEAPSLRPAPPPISGGGYRARPAKAAATQKKVERKAPDAGGCLHADPDLGVLCPTGCQLQEALLQ
chain 3: YVATRDNCCILDERFGSYCPTTCGIADFLSTYQTKVDKDLQSLEDILHQVEN

Columns and labels:
monocytes = assay: Adhesion and transmigration of pure monocytes on HUVEC on a collagen matrix; assay type: cell-based, human
Method: (§1) Endothelial cells from human umbilical veins (HUVEC) were marked with a red fluorescent dye (Cell Tracker Orange, 1 μl/ml, Molecular Probes, Eugene, Oreg.) and were dispersed on a collagen matrix (Collaborative Biomedical Products, Bedford, Mass.). Upon confluence of the endothelial cells, peripheral mononuclear blood cells (PBMC) (10^5 cells per 25 mm^2) marked with a green fluorescent dye (Cell Tracker Green, 1 μl/ml, Molecular Probes of Messrs. Eugene, Origon) were superimposed. Thereafter, the cells were incubated at 37° C. for twelve hours.
(§2) Adhering cells that had transmigrated into the gel were photographed with a laser-scan microscope, were converted into pixels and were evaluated by means of an “NIH image” according to Gröger et al. (J. Immunol. Method 1999; 222: 101-109).
(§3) It was feasible to determine the number of adherent cells per 0.1 mm^2 such as mentioned under “adhesion”. It was feasible to determine the number of migrated cells per 0.04 mm^3 such as mentioned under “migration”. The mean value of three times three trials was evaluated together with the standard deviation.
The proceedings were in accordance with Example 11, except for pure monocytes being used instead of lymphocytes. 100 μg of NDSK-uPA or 100 μg of NDSK-II, respectively, was added to peptide Aalpha, randomized Aalpha, Bbeta or randomized Bbeta.
The proceedings were in accordance with Example 12, with pure monocytes being used. […] of NDSK-uPA or 100 μg of NDSK-II, respectively, was added to the short peptide salts Aalpha Gly Pro Arg (Pro)—NH2 acetate (Aalpha derivative) or Bbeta Gly His Arg Pro-OH acetate (Bbeta derivative).

lymphocytes = assay: Adhesion and transmigration of pure lymphocytes on HUVEC on a collagen matrix; assay type: cell-based, human; conditions: Example 13, lymphocytes
Method: as §1, §2, §3
Since PBMC substantially consists of a mixture of lymphocytes and monocytes, pure lymphocytes instead of PBMC (as in Examples 8-10) were used in Example 11.
100 μg of NDSK-uPA or 100 μg of NDSK-II, respectively, and Aalpha or Bbeta, respectively, were added to the collagen matrix according to Example 8 comprising endothelial cells and lymphocytes.
The proceedings were in accordance with Example 11, with pure lymphocytes being used. 100 μg of NDSK-uPA or 100 μg of NDSK-II, respectively, was added to the short peptide salts derived from Aalpha Gly Pro Arg (Pro)—NH2 acetate (Aalpha derivative) or derived from Bbeta Gly His Arg Pro-OH acetate (Bbeta derivative).

[1] = tested on: human skin transplanted onto the backs of SCID mice, human lymphocytes injected; assay: HU-SCID mouse model: inflammatory sites in transplanted human skin; assay type: in vivo; conditions: Example 3; 100 μg alone, tail vein, 24 hours; mean +/- SD
Method: Human skin was transplanted onto the backs of SCID mice, and two weeks later human lymphocytes were injected into the peritoneum. The proceedings were according to Petzelbauer et al. (J. Invest. Dermatol. 1996, 107; 576-581). Then, fifteen mice thus prepared were injected in their tail veins with the following:
Twenty-four hours later, the human skin was removed and the number of inflammatory sites, expressed in cells per 0.3 mm^2, was evaluated and the mean value was determined with a standard deviation.

[2] = tested on: peripheral mononuclear blood cells (PBMC); assay: Adhesion and transmigration of PBMC on HUVEC on a collagen matrix; assay type: cell-based, human; conditions: Example 8, PBMC, 12 h
Method: as §1, §2, §3
100 μg of NDSK-II and Bbeta or Bbeta randomized were added to the collagen matrix according to Example 8 comprising the suspension of PBMC, and further proceedings were in accordance with Example 8.
100 μg of NDSK-II and Aalpha or Aalpha randomized were added to the collagen matrix according to Example 8 comprising the suspension of PBMC, and further proceedings were in accordance with Example 8.

[3] = Example 14, 100 μg of short peptide + 100 μg NDSK-II
[4] = Example 14, 100 μg of short peptide + 100 mg NDSK-uPA
[5] = 100 μg of short peptide + 100 μg NDSK-II
[6] = 100 μg of short peptide + 100 μg NDSK-uPA

| Molecule | adhesion (monocytes; [3]) | migration (monocytes; [3]) | adhesion (monocytes; [4]) | migration (monocytes; [4]) | adhesion (monocytes; Example 14, substance alone) | migration (monocytes; Example 14, substance alone) | adhesion (lymphocytes; [5]) | migration (lymphocytes; [5]) | adhesion (lymphocytes; [6]) | migration (lymphocytes; [6]) | adhesion (lymphocytes; substance alone, 100 μg) | migration (lymphocytes; substance alone, 100 μg) | number of inflammatory sites [1] | migration (migrated cells) ([2]; 0.1 μg/ml) | adhesion (adherent cells) ([2]; 0.1 μg/ml, mean +/- SD) | adhesion (adherent cells) ([2]; 1.0 μg/ml) | migration (migrated cells) ([2]; 1.0 μg/ml) | adhesion (adherent cells) ([2]; 10.0 μg/ml) | migration (migrated cells) ([2]; 10.0 μg/ml) |
| --- | --- | --- | --- | --- | --- | --- | --- | --- | --- | --- | --- | --- | --- | --- | --- | --- | --- | --- | --- |
| Gly Pro Arg (Pro)—NH2 acetate [Aalpha derivative] | 64 +/− 11 cells per 0.1 mm^2 | 8 +/− 2 cells per 0.04 mm^3 | 60 +/− 5 cells per 0.1 mm^2 | 7 +/− 6 cells per 0.04 mm^3 | 50 +/− 5 cells per 0.1 mm^2 | 4 +/− 4 cells per 0.04 mm^3 | 131 +/− 7 cells per 0.1 mm^2 | 49 +/− 6 cells per 0.04 mm^3 | 134 +/− 4 cells per 0.1 mm^2 | 48 +/− 5 cells per 0.04 mm^3 | 77 +/− 4 cells per 0.1 mm^2 | 18 +/− 1 cells per 0.04 mm^3 |  |  |  |  |  |  |  |
| B1 |  |  |  |  |  |  |  |  |  |  |  |  | 9+/−2.1 cells per 0.3 mm^2 | 6 +/− 4 cells per 0.04 mm^3 | 30 +/− 26 cells per 0.1 mm^2 | 10 +/− 10 cells per 0.1 mm^2 | 3 +/− 2 cells per 0.04 mm^3 | 21 +/− 7 cells per 0.1 mm^2 | 5 +/− 4 cells per 0.04 mm^3 |
| B2 |  |  |  |  |  |  |  |  |  |  |  |  |  | 6 +/− 3 cells per 0.04 mm^3 | 31 +/− 18 cells per 0.1 mm^2 | 35 +/− 18 cells per 0.1 mm^2 | 5 +/− 2 cells per 0.04 mm^3 | 36 +/− 24 cells per 0.1 mm^2 | 6 +/− 3 cells per 0.04 mm^3 |
